Earlier results, collected in patent publication US20100267610A1, “Polypeptide comprising a knottin protein moiety” (priority 2007, published 2010).
Where no end group is shown, it is not given here.

Target: T1, PTH-1 receptor (P1R) (Homo sapiens, UniProt Q03431)
T1 sequence (Q03431 27-593): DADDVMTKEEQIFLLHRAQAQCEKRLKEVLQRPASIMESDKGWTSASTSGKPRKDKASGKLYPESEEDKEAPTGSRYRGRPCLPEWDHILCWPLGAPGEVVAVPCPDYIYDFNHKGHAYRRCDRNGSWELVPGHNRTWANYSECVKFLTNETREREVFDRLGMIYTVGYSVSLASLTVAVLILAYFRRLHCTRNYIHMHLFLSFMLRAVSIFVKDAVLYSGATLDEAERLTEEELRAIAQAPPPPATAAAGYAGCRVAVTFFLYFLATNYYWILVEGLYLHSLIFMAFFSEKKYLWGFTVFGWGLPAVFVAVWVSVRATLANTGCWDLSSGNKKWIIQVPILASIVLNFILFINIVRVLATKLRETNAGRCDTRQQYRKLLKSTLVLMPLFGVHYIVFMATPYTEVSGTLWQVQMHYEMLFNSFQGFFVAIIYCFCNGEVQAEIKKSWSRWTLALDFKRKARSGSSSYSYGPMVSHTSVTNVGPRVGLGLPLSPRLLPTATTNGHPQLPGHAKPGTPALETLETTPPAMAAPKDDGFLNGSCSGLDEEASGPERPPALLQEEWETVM
Conditions: Shimizu et al. 2000

## PTH (1-14): shorter native analog of PTH, residues 1-14, from the literature (SVSEIQLMHNLGKH-NH2; UniProt P01270 32-45, looked up, fragment)
  activation of cAMP formation in cells: able to activate cAMP formation at high micromolar concentrations
